# Assay results reported in patent US20090215683A1 (ONCOTHERAPY SCIENCE, published 2009).
# T1: kinetocore associated 2 (KNTC2), endogenous protein of LC319 lung-cancer cells (human, UniProt O14777 1-642)
# T1 construct: Endogenous protein in lysates of the human lung-cancer cell line LC319; Seen as a 75-kDa band and identified by MALDI-TOF mass spectrometry; also called endogenous KNTC2
# T1 sequence: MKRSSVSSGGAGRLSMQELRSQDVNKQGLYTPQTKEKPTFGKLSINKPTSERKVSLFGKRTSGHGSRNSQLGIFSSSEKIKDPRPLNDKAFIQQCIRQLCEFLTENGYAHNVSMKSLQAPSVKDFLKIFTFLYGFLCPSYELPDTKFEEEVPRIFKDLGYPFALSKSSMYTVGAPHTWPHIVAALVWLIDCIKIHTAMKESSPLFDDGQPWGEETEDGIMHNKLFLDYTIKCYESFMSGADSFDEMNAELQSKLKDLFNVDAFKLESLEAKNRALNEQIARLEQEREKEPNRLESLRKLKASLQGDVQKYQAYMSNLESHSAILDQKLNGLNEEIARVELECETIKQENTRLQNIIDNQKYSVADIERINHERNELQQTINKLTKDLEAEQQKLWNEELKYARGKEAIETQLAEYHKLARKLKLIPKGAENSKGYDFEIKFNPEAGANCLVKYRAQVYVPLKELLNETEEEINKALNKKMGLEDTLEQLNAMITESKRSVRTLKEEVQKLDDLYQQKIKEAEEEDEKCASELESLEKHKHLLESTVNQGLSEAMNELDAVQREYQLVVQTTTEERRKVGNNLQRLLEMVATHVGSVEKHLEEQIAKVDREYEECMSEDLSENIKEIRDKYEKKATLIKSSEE
# B1: CDCA1 277-367 deletion construct with C-terminal FLAG sequence (other)
# chain: EIYGDSVDCLPSCQLEVQLYQKKIQDLSDNREKLASILKESLNLEDQIESDESELKKLKTEENSFKRLMIVKKEKLATAQFKINKKHEDVK
# notes: Expressed by transfection in LC319 cells; not shown: C-terminal FLAG tag of the pCAGGS vector
# B2: CDCA1 1-148 deletion construct with C-terminal FLAG sequence (other)
# chain: METLSFPRYNVAEIVIHIRNKILTGADGKNLTKNDLYPNPKPEVLHMIYMRALQIVYGIRLEHFYMMPVNSEVMYPHLMEGFLPFSNLVTHLDSFLPICRVNDFETADILCPKAKRTSRFLSGIINFIHFREACRETYMEFLWQYKSS
# notes: as for B1
# B3: CDCA1 319-367 deletion construct with C-terminal FLAG sequence (other)
# chain: NLEDQIESDESELKKLKTEENSFKRLMIVKKEKLATAQFKINKKHEDVK
# notes: as for B1
# B4: CDCA1 1-464 (full length), exogenous, expressed from pCAGGSn3Fc-CDCA1 in LC319 cells (other, not shown: small tags and cut ends)
# chain: METLSFPRYNVAEIVIHIRNKILTGADGKNLTKNDLYPNPKPEVLHMIYMRALQIVYGIRLEHFYMMPVNSEVMYPHLMEGFLPFSNLVTHLDSFLPICRVNDFETADILCPKAKRTSRFLSGIINFIHFREACRETYMEFLWQYKSSADKMQQLNAAHQEALMKLERLDSVPVEEQEEFKQLSDGIQELQQSLNQDFHQKTIVLQEGNSQKKSNISEKTKRLNELKLLVVSLKEIQESLKTKIVDSPEKLKNYKEKMKDTVQKLKNARQEVVEKYEIYGDSVDCLPSCQLEVQLYQKKIQDLSDNREKLASILKESLNLEDQIESDESELKKLKTEENSFKRLMIVKKEKLATAQFKINKKHEDVKQYKRTVIEDCNKVQEKRGAVYERVTTINQEIQKIKLGIQQLKDAAEREKLKSQEIFLNLKTALEKYHDGIEKAAEDSYAKIDEKTAELKRKMFKMST
# notes: It is treated as the same molecule here; also called exogenous CDCA1
# B5: CDCA1 149-306 deletion construct with C-terminal FLAG sequence (other)
# chain: ADKMQQLNAAHQEALMKLERLDSVPVEEQEEFKQLSDGIQELQQSLNQDFHQKTIVLQEGNSQKKSNISEKTKRLNELKLLVVSLKEIQESLKTKIVDSPEKLKNYKEKMKDTVQKLKNARQEVVEKYEIYGDSVDCLPSCQLEVQLYQKKIQDLSDN
# notes: Expressed by transfection in LC319 cells; also called control; not shown: C-terminal FLAG tag of the pCAGGS vector
# B6: CDCA1 200-464 deletion construct with C-terminal FLAG sequence (other)
# chain: QKTIVLQEGNSQKKSNISEKTKRLNELKLLVVSLKEIQESLKTKIVDSPEKLKNYKEKMKDTVQKLKNARQEVVEKYEIYGDSVDCLPSCQLEVQLYQKKIQDLSDNREKLASILKESLNLEDQIESDESELKKLKTEENSFKRLMIVKKEKLATAQFKINKKHEDVKQYKRTVIEDCNKVQEKRGAVYERVTTINQEIQKIKLGIQQLKDAAEREKLKSQEIFLNLKTALEKYHDGIEKAAEDSYAKIDEKTAELKRKMFKMST
# notes: Expressed by transfection in LC319 cells; also called dominant-negative fragment of CDCA1; not shown: C-terminal FLAG tag of the pCAGGS vector
# What was measured:
# [1] = target: T1, kinetocore associated 2 (KNTC2), …; assay: anti-Flag immunoprecipitation from transfected LC319 cells, immunoblot for KNTC2 (FIG. 2D)
# Method: (§1) Cell extracts from lung-cancer cell line LC319, transfected with plasmids expressing eleven deletion-constructs of CDCA1 were pre-cleared by incubation at 4° C. for 1 hour with 100 μl of protein G-agarose beads in final volumes of 2 ml of immunoprecipitation buffer (0.5% NP-40, 50 mM Tris-HCl, 150 mM NaCl) in the presence of proteinase inhibitor. After centrifugation at 1,000 rpm for 5 min at 4° C., the supernatants were incubated at 4° C. with anti-FLAG M2 agarose for 2 hours. After the beads were collected from each sample by centrifugation at 5,000 rpm for 2 min and washed six times with 1 ml of immunoprecipitation buffer, the washed beads were re-suspended in 50 μl of Laemmli sample buffer and boiled for 5 min before the proteins were separated on 10% SDS PAGE gels. Immunoblot was performed using KNTC2 polyclonal antibody (Abcom, Inc.) and anti-FLAG M2 monoclonal antibody respectively (Sigma-Aldrich Co.).
# [2] = target: T1, kinetocore associated 2 (KNTC2), …; assay: anti-Flag immunoprecipitation from transfected LC319 cells, immunoblot for KNTC2 (FIG. 2C)
# Method: as §1
# [3] = target: T1, kinetocore associated 2 (KNTC2), …; assay: immunoprecipitation with KNTC2 polyclonal antibody from LC319 cells transfected with pCAGGSn3Fc-CDCA1, anti-FLAG M2 immunoblot
# Method: (f) Identification of CDCA1-associated Proteins: Cell extracts from lung-cancer cell line LC319 were pre-cleared by incubation at 4° C. for 1 hour with 50 μl of protein A and G-agarose beads, in final volumes of 2 ml of immunoprecipitation buffer (0.5% NP-40, 50 mM Tris-HCl, 150 mM NaCl) in the presence of proteinase inhibitor. After centrifugation at 1,000 rpm for 5 min at 4° C., the supernatants were incubated at 4° C. with anti-CDCA1 polyclonal antibody, anti-KNTC2 polyclonal antibody, or normal rabbit IgG for 2 hours. After incubation at 4° C. for 1 hour with 50 μl of protein A and G-agarose beads, the beads were collected from each sample by centrifugation at 5,000 rpm for 2 min and washed six times with 1 ml of immunoprecipitation buffer, and the washed beads were re-suspended in 50 μl of Laemmli sample buffer and boiled for 5 min before the proteins were separated on 5-10% SDS PAGE gels (BIO RAD). After electrophoresis, the gels were stained with silver. […] The nucleotide sequence of each cDNA clone was determined with an ABI Prism 3700 DNA sequencer (Applied Biosystems, Foster City, Calif.), using T3, T7, or synthetic oligonucleotide primers according to the manufacturer's instructions. […]
# [4] = target: T1, kinetocore associated 2 (KNTC2), …; assay: anti-Flag immunoprecipitation (FIG. 2C); also immunoprecipitation with anti-KNTC2 polyclonal antibody (FIG. 5A)
# Method: as §1
Binder,binding result [1],binding result [2],further results
B1,no binding,–,–
B2,–,no binding,–
B3,no binding,–,–
B4,–,–,binding result [3]: binds
B5,–,no binding,–
B6,–,–,binding result [4]: binds
